Reference: article PMC10375748

Experiments:
[1] = target: ZZ peptide displayed on the CHO cell surface with the murine B7-1 transmembrane domain (from pEF1α-ZZ-B7); test: flow cytometry on cells; stable CHO-ZZ cells (2 x 10^5 cells/sample) incubated with an excess of fluorescein-conjugated IgG of Table 2 for 40 min at 4 °C, washed with PBS; percentage of positive cells
[2] = target: ZZ peptide displayed on the CHO cell surface with the human PDGFR transmembrane domain (from pEF1α-ZZ-PDGFR); test: flow cytometry on cells; CHO cells transiently transfected with the ZZ display plasmid, labelled with hIgG-FITC; percentage of ZZ-positive cells
[3] = target: ZZ peptide displayed on the CHO cell surface with the murine B7-1 transmembrane domain (from pEF1α-ZZ-B7); test: as above

Row | Substance | percentage of positive cells [1] [%] | percentage of ZZ-positive cells [2] [%] | percentage of ZZ-positive cells [3] [%]
1 | Donkey Anti-Rabbit IgG (H + L)-Cy3 (Jackson ImmunoResearch Laboratories 711-165-152) (antibody) | 100 | – | –
2 | Rb pAb to 6× His tag (FITC) (Abcam Ab1206-250) (antibody) | 100 | – | –
3 | Rb pAb to HA tag (PE) (Abcam Ab72564) (antibody) | 100 | – | –
4 | Human IgG-FITC (Bersee BFR550) (antibody) | 100 | 6.9 | 43.6
